Here are results for 6 variants from IntAct's records for PubMed 30283133.

First the molecules themselves.
B1: Teichoic acid D-alanyltransferase (Streptococcus thermophilus (strain ATCC BAA-250 / LMG 18311)), Q5M4V4 (parent)
chain: MIDFLKQLPHLEPYGNPFYFIYLGIALLPIFIGLFFKKRFAIYECLVSITFIVLALTGTHASQILALLFYIVWQIIWVYSYKRYRSQRDNKWVFYLHSFLVVLPLILVKVEPTINGTQSLLNFLGISYLTFRAVGMIIEMRDGVLKEFTLGEFLRFMLFMPTFTSGPIDRFKRFNEDYQSIPNRDELLNMLEQAVKYIMLGFLYKFVLAQIFGSMLLPPLKAQALSQGGIFNLPTLGVMYVYGFDLFFDFAGYSMFALAVSNLMGIKSPINFDKPFISRDMKEFWNRWHMSLSFWFRDFVFMRLVIVLMRNKVFKNRNTTSNVAYIINMMVMGFWHGITWYYIAYGIFHGIGLVINDAWLRKKKTINKDRKKAGLKPLPENKWTKALGIFITFNTVMLSFLIFSGFLNDLWFTKK
partner: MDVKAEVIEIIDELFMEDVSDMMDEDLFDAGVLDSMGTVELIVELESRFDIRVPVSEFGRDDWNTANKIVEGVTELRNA
B2: D-alanyl carrier protein (Streptococcus thermophilus (strain ATCC BAA-250 / LMG 18311)), Q5M4V3 (parent)
chain: B1 partner
partner: B1 chain

In the first assay the parent is B1. The settings on record: with dltc_strt2 dltC, Q5M4V3.
For the variant V305R, the “effect of a mutation on the interaction” value is “decreasing interaction strength”.

V305D;I306D: the “effect of a mutation on the interaction” value was “disrupting interaction strength”.

In another assay the parent is B1. The note with it: with dltc_strt2 dltC.
Take V305D: the “effect of a mutation on the interaction” value is recorded as “decreasing interaction”.

With V305D;I306D, the “effect of a mutation on the interaction” value is “disrupting interaction”.

In a further assay the parent is B2. The note with it: with dltb_strt2 dltB.
As to V39R, the “effect of a mutation on the interaction” value was “decreasing interaction”.

With V39D, the “effect of a mutation on the interaction” value is on record as “decreasing interaction”.

Variants of B2 are the subject of a further assay. The note with it: with dltb_strt2 dltB, Q5M4V4.
With V39D, the “effect of a mutation on the interaction” value is “decreasing interaction strength”.

Regarding S35A, the “effect of a mutation on the interaction” value is reported as “decreasing interaction”.
